Each structure is given as a SMILES string.

From paper PMC8140593, “Chemical synthesis of peptidoglycan mimetic–disaccharide-tetrapeptide conjugate and its hydrolysis by bacteriophage T5, RB43 and RB49 L-alanyl-D-glutamate peptidases” (PeerJ, 2021) come the findings set out here.

The nature of the data set: Solubility in water. The class given is physicochemical.

Consider `CC(=O)N[C@H]1[C@H](O[C@H]2[C@H](O[C@H](C)C(=O)N[C@@H](C)C(=O)N[C@H](CCC(=O)N[C@@H](C)C(=O)N[C@H](C)C(=O)O)C(=O)O)[C@@H](NC(C)=O)C(O)O[C@@H]2CO)O[C@H](CO)[C@@H](O)[C@@H]1O` (stereo partly drawn) [GMTP, N-acetylglucosaminyl-β(1-4)-N-acetylmuramoyl-l-alanyl-γ-d-glutamyl-l-alanyl-d-alanine], for which the solubility in water entry is on record as “water soluble”.
